Assay results reported in the RNAGym collection of RNA variant scans (doi:10.1073/pnas.2313332121).

B1: TPR t1 (parent)
chain: GACCAAUCUGCCCUCAGAGCUCGAGAACAUCUUCGGAUGCAGAGGAGGCAGGCUUCGGUGGCGCGAUAGCGCCAACGUCCUCAACCUCCAAUGCAUCCCACCACAUGAUGAUGCCUGAAGAGCCUUGGUUUUUUG

Variants of: B1
Test: polymerase ribozyme fitness, log enrichment relative to wild type (log ratio); higher = more active; in vitro selection for triplet polymerase activity
In short: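 Both subunits of a heterodimeric triplet polymerase ribozyme were given their own mutant library, built by PCR and transcribed. Each library was annealed with a biotinylated primer, the partner subunit and triplets, incubated frozen at −7 °C, and its extended constructs gel-excised, captured on streptavidin beads and amplified by RT-PCR, all in one round done in triplicate. Fitness is the logarithm of genotype enrichment relative to wild-type enrichment, with replicates averaged by inverse-variance weighting. That logarithm is base 2, and Illumina-sequenced genotypes needed ≥10 input reads and ≥1 read per output.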

Variant | polymerase ribozyme fitness (log ratio)
C13G C53U G113A G128U | -5.15
C13U A68G C73U U112G | -3.26
C13U A18U A43C U59C G71U A105U | -4.76
C13G C56G C88A G110C | -5.35
C13U C15U | -2.01
C13G G25A C56G A91G C99U G120U | -7.51
C13G G39U G63U C115U | -5.78
C13U A66C U106A | -0.839
C13G C72U C94U C101G | -4.88
C13G C62U G120U | -0.935
C13U A50U G77C A121G C123U C124U G128U U131C | 0.387
C13U A41U G63U | -2.71
C13U A41G C49G U87A | -0.587
C13U A46G A50U C53U U129C | -2.72
C13G G48A G63A A83C | -3.74
C13G C62A | -1.11
C13G C62G | -3.43
C13U A46U U54G A95U C123U | 1.11
C13G C114A | -2.59
C13U A46G C104G | -5.37
C13G G58U G60C G117U C123A | -2.6

Variant | polymerase ribozyme fitness (log ratio)
C13G U54C C89U A90U | -3.33
C13G G93A G113C A118U | -5.1
C13U A26C C56U | -5.2
C13G G127U | -2.53
C13G G127C | -1.12
C13G C73A U81G A121G | -1.23
C13G G47A C72U G110C | -7.11
C13G G36C C56A U78A A90G G135U | -4.08
C13U A27C A83U A84C C86A | -3.39
C13U A16G A121U U129A | 1.78
C13G G57U | -1.94
C13G C89A A90C U130C | -3.77
C13U A26G G60C G93C | -3.34
C13G G69A C124A G128A | -4.44
C13G G44A G63U G120U C123G | -0.471
C13U A24G G36U C53U C79G C98U C99A | -7.05
C13U A18C G77A | -1.41
C13G G47C A95C | -4.32
C13G C99U | -4.01
C13G C123G | 1.77
C13G C72G C102G G113A G128A | -5.75

Variant | polymerase ribozyme fitness (log ratio)
C13G G52C G71A | -3.97
C13G G117C | -4.58
C13G G113U | -2.94
C13G C82A G128C | -3.69
C13U A105C | -1.68
C13G G19U G61U C73U G113U | -5.34
C13U A16C C101G | -2.83
C13U A41G G60A C94U C115U | -1.95
C13G U59G G61U U112C | -1.62
C13U A16C A91G C104U | -1.72
C13G C124A G128U | -0.0372
C13G C89G | -3.05
C13G C70U U112G | -2.26
C13G U125A | -1.62
C13U A24G C70A C73A C104U A111U | -6.33
C13G C73A A90C U92C U126A | -5.92
C13U A16U G45U G60U A95U C97U | -2.68
C13G C56U U112C | 0.0684
C13G C56G C72G C88A G110C | -6.47
C13U A84U | -0.00977
C13U A16G A50U A90G | -0.51

Variant | polymerase ribozyme fitness (log ratio)
C13G U133A | -2.17
C13G C62G U87C A121C | -3.3
C13G G61A C70G C123U | -5.1
C13U A66U U116C | -0.492
C13G C62A C82A | -3.18
C13G G39C G113C | -3.84
C13G G63U C72U | -2.72
C13G G71C U112C G117C U125C | -5.67
C13G G19U | -4.76
C13U A16C G48C U59A A68G A100C A121C | -7.2
C13G G45U C72U C89A G120U U130A | -2.6
C13G G36A A95C | -4.52
C13U A29U | -1.8
C13G C70U | -1.62
C13U A26U C40A U112A | -4.39
C13U A16C A84U U129A | -3.48
C13U A29U A46U C56A C115U | -2.01
C13G C102A | -3.6
C13U A46G | -1.03
C13U A37C G57U | -0.0732
